Reference: the DeepSol protein solubility set

Test: soluble on expression in E. coli; label from the status in PepcDB or PDB records

| Sequence | soluble on expression in E. coli |
| --- | --- |
| MLIPAQENNVSLTATPSRIGQIMKYGFPGLDHVRSHSDYVLSYDRRNRVPHWVFEHLTAESVAKNDAVDRSKCDFKQDESIHPFFRSQNTDYRRSGYDRGHMAAAGNHRLHQKHCDETFYLSNMAPQVGQGFNRDAWNTLEAHVRRLTKTYSNVYVCTGPLYLPHKEDDGKSYVKYEVIGANTVAVPTHFYKVIVGESADHKLHMESYVMPNQVISNDTPISVFQVPPESVERSAGLLFFDQINRKQLTTINGKKVAAALEHHHHHH | soluble |
| MGSDKIHHHHHHMQAAWLLGALVVPQLLSFGHGARGPGREWEGGWGGALEEERERESQMLKNLQEALGLPTGVGNEDNLAENPEDKEVWETTETQGEEEEEEITTAPSSSPNPFPSPSPTPEDTVTYILGRLASLDAGLHQLHVRLHVLDTRVVELTQGLRQLRDAASDTRDSVQALKEVQDRAEQEHGRLEGCLKGLRLGHKCFLLSRDFETQAAAQARCKARGGSLAQPADRQQMDALSRYLRAALAPYNWPVWLGVHDRRSEGLYLFENGQRVSFFAWHRAFSLESGAQPSAATHPLSPDQPNGGVLENCVAQASDDGSWWDHDCERRLYFVCEFPF | not soluble |
| MSASSLLEQRPKGQGNKVQNGSVHQKDGLNDDDFEPYLSPQARPNNAYTAMSDSYLPSYYSPSIGFSYSLGEAAWSTGGDTAMPYLTSYGQLSNGEPHFLPDAMFGQPGALGSTPFLGQHGFNFFPSGIDFSAWGNNSSQGQSTQSSGYSSNYAYAPSSLGGAMIDGQSAFANETLNKAPGMNTIDQGMAALKLGSTEVASSVPKVVGSAVGSGSITSNIVASSSLPPATIAPPKPASWADIASKPAKQQPKLKTKNGIAGSSLPPPPIKHNMDIGTWDNKGPVAKAPSQALVQNIGQPTQGSPQPVGQQANNSPPVAQASVGQQTQPLPPPPPQPAQLSVQQQAAQPTRWVAPRNRGSGFGHNGVDGNGVGQSQAGSGSTPSEPHPVLEKLRSINNYNPKDFDWNLKHGRVFIIKSYSEDDIHRSIKYNIWCSTEHGNKRLDAAYRSMNGKGPVYLLFSVNGSGHFCGVAEMKSAVDYNTCAGVWSQDKWKGRFDVRWIFVKDVPNSQLRHIRLENNENKPVTNSRDTQEVPLEKAKQVLKIIASYKHTTSIFDDFSHYEKRQEEEESVKKERQGRGK | soluble |
| MSQMAQSLRSQFATDKQVLQKFLNLDQKGMYQALYIWIDGSGENIRAKTRTFDFEPTDPEKLPIWNFDGSSTGQAEGADSDVYLKPVAIYPDPFRQGKNKLVMCETYDNKKKPTATNYRQRCKEVMEKAADQHPWFGMEQEYTLLDIDGHPFGWPKNGFPGPQGPYYCGVGANKVYGRDIVEAHYRACLYAGIQISGTNAEVMPGQWEFQVGPCEGIQMGDQLWVARYLLQRVAEEFGVIASFDCKPIKGDWNGAGCHTNFSTDKMRNPGGIDEIMSAINKLSLVHPQHIAYYDPHGGKDNERRLTGLHETASIDKFSYGVASRASSIRIPRSTDDDGYGYFEDRRPSSNCDPYTVTGALVRTVCLEGAERKLSMMYVPSQAPNITKH | not soluble |
| SGVDRVLVKSEAWADNRLPLTEAELALIATPPEDSDMASLQQQRQEQNYFVRLGSLSERLRNHAYEHSLGKLQNARQKAQETLQQLTSVLGLMESVKQGVDQRLGEGQEKLHQMWLSWNQKTPQDAEKDPAKPEQVEARALSMFRDITQQLQSMCVALGASIQGLPSHVREQAQQARSQVNDLQATFSGIHSFQDLSAGVLAQTRERIARAREALDNTVEYVAQNTPAMWLVGPFAPGITEKTPEGK | soluble |
| MGSDKIHHHHHHMKSMWCIHDRIFLKKTREVFDVDIKAYKERVEKAVEYLKGQIDETPEIAIILGSGLSVIADEVEKEGTSKKIPYSEIPGFPISTAPGHKGELIFGKLFGKNVMLMNGRFHYYEGYSMKEVTFPIRVMQLLGVEILIVTNAAGGLNPDFEVGRPMIITDHINFMGDNPLIGPNVDEWGPRFPDMSEPYDKELIELAYNSARELGIPVYQGVYVAVTGPCFETPAELRMLRKFGADAVGMSTVPEVIVARHGQIRVLGISAITDRAVPEDLKPLTAEEVLEVAEKTGRKIAQIIFEVVRKL | not soluble |
| MGFNVKTPLLATDVIIRLWDGENFKGIVLIERKYPPVGLALPGGFVEVGERVEEAAAREMREETGLEVRLHKLMGVYSDPERDPRAHVVSVVWIGDAQGEPKAGSDAKKVKVYRLEEIPLDKLVFDHKKIILDFLKGNY | soluble |
